Assay results: patent US12692524B2, “Sialyltransferases and their use in producing sialylated oligosaccharides” (Chr. Hansen A/S, priority 2017, dated 2026)

Experiments:
[1] = In vivo screening in E. coli #1363/#1730 with lactose as acceptor, sialyllactose identified by TLC; format: cell-based, Escherichia coli BL21(DE3); settings: 1.5 mM lactose, 72 to 96 hours, qualitative via TLC
In short: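 E. coli BL21(DE3) #1363/#1730 expressing sialyltransferases were grown at 30 °C in mineral salts medium with 2% glucose and induced with 0.3 mM IPTG. After 1 h, 1.5 mM lactose was added, plus 1.5 mM sialic acid for #1730, and incubation ran 72–96 h. Cell lysates were analysed by silica TLC with thymol staining.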

[2] = In vitro kinetics (Km, Vmax), acceptor substrate lactose; format: biochemical; settings: 30° C., pH7.5, protein extract
Protocol: (§1) To rank the best performing sialyltransferases, their Km values for donor and acceptor substrates were determined in vitro. Escherichia coli BL21(DE3) strain #287 was used for overproduction of the enzymes. Cells were incubated in 100 ml 2YT medium in shaking flasks supplemented with 100 μg m^−1 ampicillin at 30° C. until an OD600 of 0.3 was reached. Then, 0.3 mM IPTG was added and the incubation was continued for 12 to 16 hours. Cells were harvested by centrifugation and mechanically disrupted in a defined volume of 50 mM Tris-HCl pH7.5 using glass beads. The protein extract was kept on ice until the assay started. The in vitro assay was carried out in a total volume of 50 μl including 50 mM Tris-HCl pH7.5, 5 mM MgCl2 and varying concentrations of CMP-Neu5Ac (0.05-30 mM) as well as of lactose or LNT (0.1-50 mM). The assay started with the addition of 35 to 750 μg protein extract. After 1 to 10 minutes of incubation at 30° C., the assay was inactivated at 95° C. for 5 minutes. Product formation was determined by mass spectrometry. Data were evaluated using the enzyme kinetic module of SigmaPlot v12.5 to calculate Km and Vmax.
(§2) Their kinetic parameters for CMP-Neu5Ac and LNT as well as lactose are depicted in Table 6.

[3] = In vitro sialylation of LNT by protein extracts, LST-a/-b quantified by LC-MS/MS; format: biochemical
In short: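 E. coli BL21(DE3) crude extracts overexpressing sialyltransferases (IPTG 0.3 mM, 12–16 h at 30 °C) incubated 16 h with 5 mM LNT and 10 mM CMP-Neu5Ac in 50 mM Tris-HCl pH 7.5, 5 mM MgCl2. LST-a and LST-b measured by HILIC LC-MS/MS, MRM in ESI negative mode, against commercial standards.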

[4] = In vitro kinetics (Km, Vmax), donor substrate CMP-Neu5Ac; format: biochemical; settings: 30° C., pH7.5, protein extract
Protocol: as §1, §2

[5] = In vitro kinetics (Km, Vmax), acceptor substrate LNT; format: biochemical; settings: 30° C., pH7.5, protein extract
Protocol: as §1, §2

B1: SiaT18: sialyltransferase of Photobacterium leiognathi JT-SHIZ-119, acc. AB500947, SEQ ID NO: 28 (protein, listed as Photobacterium leiognathi)
chain: MCNDNQNTVDVVVSTVNDNVIENNTYQVKPIDTPTTFDSYSWIQTCGTPILKDDEKYSLSFDFVAPELDQDEKFCFEFTGDVDGKRYVTQTNLTVVAPTLEVYVDHASLPSLQQLMKIIQQKNEYSQNERFISWGRIGLTEDNAEKLNAHIYPLAGNNTSQELVDAVIDYADSKNRLNLELNTNTAHSFPNLAPILRIISSKSNILISNINLYDDGSAEYVNLYNWKDTEDKSVKLSDSFLVLKDYFNGISSEKPSGIYGRYNWHQLYNTSYYFLRKDYLTVEPQLHDLREYLGGSLKQMSWDGFSQLSKGDKELFLNIVGFDQEKLQQEYQQSELPNFVFTGTTTWAGGETKEYYAQQQVNVVNNAINETSPYYLGREHDLFFKGHPRGGIINDIILGSFNNMIDIPAKVSFEVLMMTGMLPDTVGGIASSLYFSIPAEKVSFIVFTSSDTITDREDALKSPLVQVMMTLGIVKEKDVLFWSDLPDCSSGVCIAQY
Production of sialyllactose in-vivo [1]: 6′-SL
Km [2]: 7.6 mM
Vmax Lactose [2]: 0.21 µmol/min
Relative efficacy of sialyltransferases regarding in-vitro production of sialyllacto-N-tetraoses: LST-b ([3]; 5 mM LNT, 10 mM CMP-Neu5Ac, 16 hours, LC-MS/MS, relative quantity, n.d.: not detectable): 303
Ranking in the screening for sialylation of LNT ([3]; in words): sialylate LNT most efficiently among the tested α-2,6-sialyltransferases
Km [4]: 2.8 mM
Vmax CMP-Neu5Ac [4]: 0.21 µmol/min
Km [5]: 5.2 mM
Vmax LNT [5]: 0.14 µmol/min
